The values below are quoted from earlier work in PMC10611464.

For data set [1], the target named is VIP (Homo sapiens) (UniProt P01282).
In data set [2] the target is PACAP (Homo sapiens) (UniProt P18509).
Data set [3] shares this target. This is another data set of the same source.
The target of data set [4] is VIP (Homo sapiens) (UniProt P01282). This is another data set of the same source.
Data set [5] has as its target PACAP (Homo sapiens) (UniProt P18509). The source holds these as a separate data set.

Like-named read-outs stand apart in the source and are kept apart here.

UniProt P18509, sequence (P18509 82-129): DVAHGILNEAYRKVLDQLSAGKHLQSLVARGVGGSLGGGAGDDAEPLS
UniProt P01282, sequence (P01282 125-152): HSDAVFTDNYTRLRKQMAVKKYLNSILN

Consider VPAC2 (from UniProt P41587), for which the Kd in the data set with VIP (Homo sapiens) [1] and with PACAP (Homo sapiens) [2] was 1 nM each time.
For PAC1 (from UniProt P41586), the Kd with PACAP (Homo sapiens) [3] is 0.5 nM.
For the substance VPAC1 (from UniProt P32241), the Kd with VIP (Homo sapiens) [4] and with PACAP (Homo sapiens) [5] was 1 nM throughout.

In general, Kd refers to a measure of binding affinity in units of concentration.
